From the DeepSol protein solubility set

Test: soluble on expression in E. coli; label from the status in PepcDB or PDB records
For “ADVPAGVQLADKQTLVRNNGSEVQSLDPHKIEGVPESNVSRDLFEGLLISDVEGHPSPGVAEKWENKDFKVWTFHLRENAKWSDGTPVTAHDFVYSWQRLADPNTASPYASYLQYGHIANIDDIIAGKKPATDLGVKALDDHTFEVTLSEPVPYFYKLLVHPSVSPVPKSAVEKFGDKWTQPANIVTNGAYKLKNWVVNERIVLERNPQYWDNAKTVINQVTYLPISSEVTDVNRYRSGEIDMTYNNMPIELFQKLKKEIPNEVRVDPYLCTYYYEINNQKAPFNDVRVRTALKLALDRDIIVNKVKNQGDLPAYSYTPPYTDGAKLVEPEWFKWSQQKRNEEAKKLLAEAGFTADKPLTFDLLYNTSDLHKKLAIAVASIWKKNLGVNVNLENQEWKTFLDTRHQGTFDVARAGWCADYNEPTSFLNTMLSDSSNNTAHYKSPAFDKLIADTLKVADDTQRSELYAKAEQQLDKDSAIVPVYYYVNARLVKPWVGGYTGKDPLDNIYVKNLYIIKH”, the “soluble on expression in E. coli” value was “soluble”.
With “MISIDPQFIKNFSKKVKQFDKFSLFVHVNPDFDAFGSAFAFKTFLNTFFSEKKAYVMGSYNINADGRELFPFEQTDINDDFVKESLAIIFDTSNQERVLTQKHKLAKETVRIDHHPRTEKFADMEWIDSSFSATAEMIGYLILQMGYKLNDEIASYLYAGIITDTQRFWGPTTTPQTFALTAKLMETGFNRNKVHDAVYLKPLLEHKYFSYVLSKAKITKNGLAYALIKKGAYKHFGVVSPLPMVHALNNIKGVKIWTTVYFNESIKKWIGSIRSRNIPINNFAQMFNGGGHKYAAAFVLDEKNQFMKLVQIMDDFLAKQNENS” the “soluble on expression in E. coli” value was “not soluble”.
For “MSSQMKAFLNELQGNMEVVGEFFDNPEKVIRKFGIVGREKEALLIRDLNDMDDYALSIQNSVASPSGAHSSTCHFVRQDLQSA”, the “soluble on expression in E. coli” value was “not soluble”.
In the case of “MVAADIGAGLADALTAPLDHKDKGLQSLTLDQSVRKNEKLKLAAQGAEKTYGNGDSLNTGKLKNDKVSRFDFIRQIEVDGQLITLESGEFQVYKQSHSALTAFQTEQIQDSEHSGKMVAKRQFRIGDIAGEHTSFDKLPEGGRATYRGTAFGSDDAGGKLTYTIDFAAKQGNGKIEHLKSPELNVDLAAADIKPDGKRHAVISGSVLYNQAEKGSYSLGIFGGKAQEVAGSAEVKTVNGIRHIGLAAKQHHHHHH”, the “soluble on expression in E. coli” value is reported as “soluble”.
With “MTKQAEETQKPIIFAPETYQYDKFTLNEKQLTDDPIDLFTKWFNEAKEDPRETLPEAITFSSAELPSGRVSSRILLFKELDHRGFTIYSNWGTSRKAHDIATNPNAAIVFFWKDLQRQVRVEGITEHVNRETSERYFKTRPRGSKIGAWASRQSDVIKNREELDELTQKNTERFKDAEDIPCPDYWGGLRIVPLEIEFWQGRPSRLHDRFVYRRKTENDPWKVVRLAP” the “soluble on expression in E. coli” value was “soluble”.
With “MYRTHYSSEITEELNGQKVKVAGWVWEVKDLGGIKFLWIRDRDGIVQITAPKKKVDPELFKLIPKLRSEDVVAVEGVVNFTPKAKLGFEILPEKIVVLNRAETPLPLDPTGKVKAELDTRLNNRFMDLRRPEVMAIFKIRSSVFKAVRDFFHENGFIEIHTPKIIATATEGGTELFPMKYFEEDAFLAESPQLYKEIMMASGLDRVYEIAPIFRAEEHNTTRHLNEAWSIDSEMAFIEDEEEVMSFLERLVAHAINYVREHNAKELDILNFELEEPKLPFPRVSYDKALEILGDLGKEIPWGEDIDTEGERLLGKYMMENENAPLYFLYQYPSEAKPFYIMKYDNKPEICRAFDLEYRGVEISSGGQREHRHDILVEQIKEKGLNPESFEFYLKAFRYGMPPHGGFGLGAERLIKQMLDLPNIREVILFPRDRRRLTP” the “soluble on expression in E. coli” value was “soluble”.
With “MFLRYMRRRGSGEDHEEEPRGVTVIATKVAENSKNPRRYSLVHQASCETQHHKGIRRQNTIQHRKQLTDQMRCQKILQQLNDEGIEVIFTANDVTPIEFSIILTSTDPTLSNFVSDILQNMSSAKVQICHVETRGNEASHDVLLACKATKNQLIHSAELLTQNHVALTKFSIFAKKLSDEKNQSQIWFPRHISELDQCSKCITKYEPTTDPRHPGHGDVAYIARRKFLNDQALEFKFGDEIGYVDYTEEEHATWKAVYEKLGDLHLSHTCAVYRQNLKILQEEKVLTADRIPQIRDVNKFLQKKTGFELRPCSGLLSARDFLASLAFRVFQTTTYLRHHKSPHHSPEPDLIHELLGHVPMFSDPLLAQMSQDIGLMSLGASDEHIEKLSTVYWFIVEFGLCKEDGKLKAIGAGLLSAYGELMHACSDAPEHKDFDPAVTAVQKYEDDDYQPLYFVADSIHDALAKLRKYASSMDRPFSVVYDPFTKSIEAIESSADLEKAFSRLSNDLSAITHAADRMKISITM” the “soluble on expression in E. coli” value was “not soluble”.
For “MRISAKGRYALAAVISMAQQYNNGEYITVISISEKLGISKIFLEQVFSSLKKAKIVSSTKGVQGGYQLTRTPSQITVLDVLLSVEVSLFEQTQETVSDKAPDIEQALRSSVFDVLDKNIKQTLSTITIADLVAEAEKHKDYNALMFYI”, the “soluble on expression in E. coli” value was “soluble”.
In the case of “MNNIQTNTRDQDSLEYILQLELDNIRLFLELLEHERNLLAAGNLDDLALLVADKDRLIDQFARLDMRRNRFLNAAGLPEGTQGMNAWVSGSDEESTVARDWEELLGLADLAKQLNQTNAVITSSWLQYTRRTLNALHSAAGRPPLYNTKGQTT”, the “soluble on expression in E. coli” value is reported as “not soluble”.
For “MGSDKIHHHHHHMIKAIALLRRKQGLSREQFIAYYETRHAPLIRSLLPGIEDYRRNYVDRTGAFESGIAAIDFDSVTEMRFASRASYDAFLAQAADPEIARLIADDEENVFDRSATRMFVVDETPAALSPDTPSPVLIDELLAERAIRDGLARFARVLDAKAWDALGDVFAADLTFDYGLGEQVGLEALTVNMRRFLDVCGPSQHLIGSIMITVDPGLQSATSRAYVRARHQRAGNSGGPVFDSNGEYVDRWECRAEGWRIVRRDALWQTQSGEAAIIWDGSPAAG”, the “soluble on expression in E. coli” value was “not soluble”.
In the case of “MAIVPRPITKFKRACLRIKLARCQKTPLSNFARSDLRSFSVFRFNLSVLQLVSSKIVKLDIMKQAAITSALTQNKMDPINGNLTSTAPVEPLSLTAAEQVGGAFCHQFYITVSENRKAITKFYGHESKFYLDDQVVTGSQEIVKLYNHLPETTHFKIQSIKGYPTPHKQGVIINVIGTVNLRPFLQSFLLGQQGQKKYYVESDAFQYIDKFFVANTEKEKTTSSTGHNGHASGANGKDSKSSKTEQPKEQSKPAPPKQQTPKKAEDRIVKQDTPKSVEKEVAKTPQKPQLAQQPPQQRAPVPEPVQEQPKVQKTWANLVGGGGKSQPPQQQSYGQGQQIHQQTQMHHMQPSMHQQQQGSHAPLYQQQRQSHPANELRQAQESSDANLNERKIYLGGITREIVPSNTAQAESEIKQVFYKYGEIEEVRMPRKVLDSPNDTSKHAFAFITMRNKAGVKAIFEAATKDEQGVWKLPLKLDAFGFDGHAQISEQRDQPQGGGFRGGRGGFQPRGGQFFRRGGSGGAPRGGMRSGFQNAGQN”, the “soluble on expression in E. coli” value is reported as “not soluble”.
For “AYQLYRNTTLGNSLQESLDELIQSQQITPQLALQVLLQFDKAINAALAQRVRNRVNFRGSLNTYRFCDNVWTFVLNDVEFREVTELIKVDKVKIVACDGKNTGSNTTE”, the “soluble on expression in E. coli” value was “soluble”.
In the case of “STTEVVMENVTAFWEEGFGELFEKAKQNNNNRKTSNGDDSLSFSNFSLLGTPVLKDINFKIERGQLLAVAGSTGAGKTSLLMMIMGELEPSEGKIKHSGRISFCSQNSWIMPGTIKENIIFGVSYDEYRYRSVIKACQLEEDISKFAEKDNIVLGEGGITLSGGQRARISLARAVYKDADLYLLDSPFGYLDVLTEKEIFESCVCKLMANKTRILVTSKMEHLKKADKILILHEGSSYFYGTFSELQNERPDFSSKLMGCDSFDQFSAERRNSILTETLHRFSLEGDAPVSENLYFQGDKDCEMKRTTLDSPLGKLELSGCEQGLHEIKLLGKGTSAADAVEVPAPAAVLGGPEPLMQATAWLNAYFHQPEAIEEFPVPALHHPVFQQESFTRQVLWKLLKVVKFGEVISYQQLAALAGNPAATAAVKTALSGNPVPILIPCHRVVSSSGAVGGYEGGLAVKEWLLAHEGHRLGKPGLG”, the “soluble on expression in E. coli” value is reported as “soluble”.
For “MKAAAKRISDGVYWTGVLDWDLRNYHGYTLQGTTYNAYLVCGDEGVALIDNSYPGTFDELMARVEDALQQVGMERVDYIIQNHVEKDHSGVLVELHRRFPEAPIYCTEVAVKGLLKHYPSLREAEFMTVKTGDVLDLGGKTLTFLETPLLHWPDSMFTLLDEDGILFSNDAFGQHLCCPQRLDREIPEYILMDAARKFYANLITPLSKLVLKKFDEVKELGLLERIQMIAPSHGQIWTDPMKIIEAYTGWATGMVDERVTVIYDTMHGSTRKMAHAIAEGAMSEGVDVRVYCLHEDDRSEIVKDILESGAIALGAPTIYDEPYPSVGDLLMYLRGLKFNRTLTRKALVFGSMGGNGGATGTMKELLAEAGFDVACEEEVYYVPTGDELDACFEAGRKLAAEIRR”, the “soluble on expression in E. coli” value was “soluble”.
